Laboratory results taken from paper PMC11367332, “Neutralizing IL-38 activates γδ T cell-dependent antitumor immunity and sensitizes for chemotherapy” (Journal for Immunotherapy of Cancer, 2024).

Tests used:
CD8+ T cells = assay: CD8+ T-cell proliferation assay (co-culture with cDC1); type: cell-based, mouse; conditions: 5 µM added daily
Protocol: CD8+ T cells from murine spleen and cDC1 from PyMT tumors treated in vivo with anti-IL-38 antibodies were isolated by FACS-sorting. CD8+ T cells and cDC1 were co-cultured at a ratio of 1:40 in the T-cell medium. Cells were pre-incubated with either 100 nM anti-IL-38 or 100 nM IgG isotype control, activated with mouse T-cell activator CD3/CD28 Dynabeads (Thermo Fisher Scientific) and supplemented with 10 ng/mL rm IL-2 (PrepoTech) at days 0, 2 and 5 and 50 μM β-mercaptoethanol daily. For the Notch signaling blockade, 5 µM γ-secretase inhibitor DAPT (Abcam) was added daily. For CD8+ T cell culture, 100 ng/mL rm IL-38 (AdipoGen) was added daily. Supernatants were collected for cytokine determination at days 3, 5 and 7 and cell proliferation was analyzed by flow cytometry.
To measure the cytokines in PyMT tumors and cell culture supernatants, Cytometric Bead Array Flex Sets (BD Biosciences) were used for murine IL-17A and IFN-γ. The samples were acquired via FACS and analyzed with FlowJo Software V.10 (Tree Star).

PyMT tumors [1] = assay: Therapeutic model of chemoresistance in PyMT mice (doxorubicin with or without anti-IL-38); type: in vivo, mouse
Text: The C57BL/6N IL-38 knockout (KO) strain was previously described.[10] For the polyoma virus middle T oncoprotein (PyMT) model, IL-38 KO mice were crossed with the PyMT mammary carcinoma strain, previously bred into a C57BL/6 background.[19] Only female PyMT mice were used. Tumor development in PyMT wildtype (WT) versus IL-38 KO mice was monitored once a week for up to 8 weeks, starting at 12 weeks using electronic calipers. For IL-38 neutralization, PyMT WT mice were intraperitoneally (i.p.) injected with 100 µg of either anti-IL-38 antibody (e04, in-house generated) or IgG1 (Human IgG1, Bio X Cell) isotype control. […] The treatment started at week 13 and tumor growth was monitored once a week. Group sizes were determined based on prior experience with the model. […]
(§1) For preparing single-cell suspensions, PyMT tumors were processed with the Tumor Dissociation Kit (Miltenyi Biotec) and gentleMACS Dissociator (Miltenyi Biotec) according to standard protocols. […] Samples were acquired with an FACSymphony A5 or FACSymphony S6 flow cytometer (BD Bioscience) and the data was analyzed in FlowJo software V.10 (Tree Star). […] For the gating strategy, fluorescence minus one controls were applied. […]

[2] = molecular target: T1, mIL-38-Avi (murine IL-38 with Avi tag) (Mus musculus, UniProt Q8R459); assay: BLI; Octet RED96; mIL-38-Avi immobilised on streptavidin biosensors at 2 µg/mL; Fab from 250 to 7.8 nM in 1:1 dilution steps; 150 mM NaCl, 50 mM Tris-HCl pH 7.5, 0.1% BSA, 0.02% Tween 20; 1:1 analyte model with global fit; conditions: both partners purified
T1 construct: interleukin-38 (IL-38, IL-1 family member 10), mouse; PDB 8Q3J holds mIL-38 and may show the limits of the construct; also called mouse IL-38

murine IL-38 = molecular target: T2, murine IL-38 (Mus musculus, UniProt Q8R459); assay: Neutralization of IL-38 effect on IL-17 production by splenic γδ T cells; type: cell-based; conditions: γδ T cells on anti-CD3 plates, IL-1 and IL-23 + IL-38 and Fab, supernatants after 5 days
T2 construct: purchased AdipoGen AG-40B-0101-C010
T2 sequence (Q8R459 1-152): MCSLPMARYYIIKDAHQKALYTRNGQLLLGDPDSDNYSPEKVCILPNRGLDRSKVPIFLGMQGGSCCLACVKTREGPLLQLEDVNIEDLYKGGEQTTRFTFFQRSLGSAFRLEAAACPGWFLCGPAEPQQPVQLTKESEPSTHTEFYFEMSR
Protocol: Figure 2 IL-38 neutralization slows down tumor development and increases T-cell infiltrates into tumors. (A) Kinetic analysis and dissociation constants (Kd) of Fabs e04 and h06 selected by phage display binding to mouse IL-38 determined by biolayer interferometry. (B) Mouse splenic γδ T cells were seeded on anti-CD3 coated plates and treated with IL-1 and IL-23 + IL-38 and Fab fragments putatively recognizing […] murine IL-38. IL-17 levels in supernatants were analyzed after 5 days. Unrelated Fab fragments c05 and d09 were used as negative controls. Data are from four independent experiments. (C) SDS-PAGE analysis of purified e04 IgG. (D) Binding profile of e04 IgG and mouse IL-38 determined by biolayer interferometry. (E) Crystal structure of Fab E04 binding to recombinant IL-38. […] (F) Tumor growth was monitored when the first tumor reached 0.6 cm in diameter. […] (I) The overall immune cell profile (n=6), (J) γδ T-cell subsets (n=5–6) and (K) intracellularly produced cytokines (n=10–11) were determined by flow cytometry after 5 weeks of treatment. (L) Representative images of PyMT tumors stained for CD8, CD4 and CD3 and (M) quantification of indicated cells is shown. […] Data are shown as means±SEM. *p<0.05, **p<0.01, ***p<0.001; p values were calculated using unpaired multiple t-tests with FDR correction. […]

[3] = molecular target: T1, mIL-38-Avi (murine IL-38 with Avi tag); assay: BLI; Octet RED96; mIL-38-Avi immobilised on streptavidin biosensors at 2 µg/mL; IgG from 250 to 7.8 nM in 1:1 dilution steps; 150 mM NaCl, 50 mM Tris-HCl pH 7.5, 0.1% BSA, 0.02% Tween 20; 1:2 bivalent model; conditions: both partners purified
PyMT tumors [4] = assay: IL-38 neutralization in PyMT mammary carcinoma model; type: in vivo, mouse
Text: The C57BL/6N IL-38 knockout (KO) strain was previously described.[10] For the polyoma virus middle T oncoprotein (PyMT) model, IL-38 KO mice were crossed with the PyMT mammary carcinoma strain, previously bred into a C57BL/6 background.[19] Only female PyMT mice were used. Tumor development in PyMT wildtype (WT) versus IL-38 KO mice was monitored once a week for up to 8 weeks, starting at 12 weeks using electronic calipers. For IL-38 neutralization, PyMT WT mice were intraperitoneally (i.p.) injected with 100 µg of either anti-IL-38 antibody (e04, in-house generated) or IgG1 (Human IgG1, Bio X Cell) isotype control. For CD8+ T cell depletion, PyMT WT mice were injected with 100 µg of anti-IL-38 antibody (e04) in combination with either 250 µg of anti-CD8 antibody (anti-mouse CD8α, Bio X Cell) or IgG2b (rat IgG2b, Bio X Cell) isotype control. In both experiments, the treatment started once the first tumor reached a size of 0.6 cm in diameter. The antibodies were injected once a week for 5 weeks. In the therapeutic model of chemoresistance, PyMT WT mice were i.p. injected with 5 mg/kg of doxorubicin (Teva Pharma) in combination with either IgG1 isotype control or anti-IL-38 antibody. The mice were treated with five once-weekly cycles of chemotherapy once the first tumor reached a size of 1.0 cm in diameter. For γδ T-cell receptor (TCR) neutralization, mice were separated into four groups, in which PyMT WT and IL-38 KO mice were treated with either anti-γδ TCR antibody (UC7-13D5, Bio X Cell) or IgG (polyclonal Armenian hamster, Bio X Cell) isotype control once a week for 5 weeks. Mice were i.p. injected once with 500 µg of antibodies, followed by 4 weekly injections of 200 µg.[20] The treatment started at week 13 and tumor growth was monitored once a week. Group sizes were determined based on prior experience with the model. No exclusion criteria were defined and no animals were excluded. Due to the nature of the model (treatment start for every single animal depends on individual parameters), simple randomization (no confounder minimization) was done and the experimenters were not blinded. Data analysis was done in a blinded manner. Animals were housed in groups at the Zentrale Forschungseinrichtung (animal testing facility), Faculty of Medicine, Goethe University Frankfurt. […]
as §1

In the case of `C[C@H](NC(=O)Cc1cc(F)cc(F)c1)C(=O)N[C@H](C(=O)OC(C)(C)C)c1ccccc1` [DAPT], the “cDC1-induced IFN-γ production by CD8+ T cells” value (CD8+ T cells; cytometric bead array days 3, 5 and 7) is reported as “strongly inhibited” and the “cDC1-induced proliferation of CD8+ T cells” value (CD8+ T cells; flow cytometry at day 7) is reported as “strongly inhibited”.

In the case of `COc1cccc2c1C(=O)c1c(O)c3c(c(O)c1C2=O)C[C@@](O)(C(=O)CO)C[C@@H]3O[C@H]1C[C@H](N)[C@H](O)[C@H](C)O1` [doxorubicin], the “IL-38 expression in the tumor” value (PyMT tumors [1]; Il1f10 mRNA by quantitative PCR, PyMT WT mice) is reported as “increased IL-38 expression in the tumor” and the Tumor progression (PyMT tumors [1]; late-stage setting, start at tumor size 1 cm, doxorubicin 5 mg/kg i.p., five once-weekly cycles, antibody 100 µg/mouse) is reported as “did not”.

B1: Fab e04 (Fab, V domains shown)
VH: EVQLVESGGGLVQPGGSLRLSCAASGFSFSSSSIHWVRQAPGKGLEWVASISPYYSYTSYADSVKGRFTISADTSKNTAYLQMNSLRAEDTAVYYCARTVRGSKKPYFSGWAMDYWGQGTLVTVSS
VL: DIQMTQSPSSLSASVGDRVTITCRASQSYYSYVAWYQQKPGKAPKLLIYSASSLYSGVPSRFSGSRSGTDFTLTISSLQPEDFATYYCQQVFAPITFGQGTKVEIK
notes: heavy chain (Fd) of Fab e04 from a synthetic Fab-phage library; light chain of Fab e04 from a synthetic Fab-phage library; Selected by phage display against murine IL-38; the library is described in the online supplemental methods; also called anti-IL-38 Fab fragment; source: E. coli BL21, purified (HiTrap Protein G)
Molecule B1 has a Kd [2] of 6.7 nM.

B2: Fab e04: Fab fragment selected by phage display from a synthetic Fab-phage library, binds murine IL-38 (antibody, V domains shown)
VH: EVQLVESGGGLVQPGGSLRLSCAASGFSFSSSSIHWVRQAPGKGLEWVASISPYYSYTSYADSVKGRFTISADTSKNTAYLQMNSLRAEDTAVYYCARTVRGSKKPYFSGWAMDYWGQGTLVTVSS
VL: DIQMTQSPSSLSASVGDRVTITCRASQSYYSYVAWYQQKPGKAPKLLIYSASSLYSGVPSRFSGSRSGTDFTLTISSLQPEDFATYYCQQVFAPITFGQGTKVEIK
B2 was tested, and the “Effect on IL-38 inhibition of IL-17 production by γδ T cells” value (murine IL-38) was “neutralized the inhibitory effect of IL-38 on IL-17 production by γδ T cells”.

B3: e04 IgG (Fab e04 converted into full-length IgG1) (antibody, V domains shown)
VH: EVQLVESGGGLVQPGGSLRLSCAASGFSFSSSSIHWVRQAPGKGLEWVASISPYYSYTSYADSVKGRFTISADTSKNTAYLQMNSLRAEDTAVYYCARTVRGSKKPYFSGWAMDYWGQGTLVTVSS
VL: DIQMTQSPSSLSASVGDRVTITCRASQSYYSYVAWYQQKPGKAPKLLIYSASSLYSGVPSRFSGSRSGTDFTLTISSLQPEDFATYYCQQVFAPITFGQGTKVEIK
notes: variable part as the heavy chain of m2 (PDB 8Q3J), converted into full-length IgG1 format; as the light chain of m2 (PDB 8Q3J); IgG1; also called IgG e04; anti-IL-38 antibody (e04); source: Expi293F, transfected, purified from supernatant (HiTrap Protein G)
B3 gave a Kd [3] of 0.68 nM.

B4: IgG e04: Fab e04 converted into full-length IgG1 format; in-house generated IL-38 neutralizing antibody (antibody, V domains shown)
VH: EVQLVESGGGLVQPGGSLRLSCAASGFSFSSSSIHWVRQAPGKGLEWVASISPYYSYTSYADSVKGRFTISADTSKNTAYLQMNSLRAEDTAVYYCARTVRGSKKPYFSGWAMDYWGQGTLVTVSS
VL: DIQMTQSPSSLSASVGDRVTITCRASQSYYSYVAWYQQKPGKAPKLLIYSASSLYSGVPSRFSGSRSGTDFTLTISSLQPEDFATYYCQQVFAPITFGQGTKVEIK
With B4 the “Expression of the PD-1/PD-L1 immune checkpoint in tumors” value (PyMT tumors [4]; CD8+ T cells, macrophages, tumor cells, flow cytometry) was “did not observe an impact”, the Tumor development (PyMT tumors [4]; PyMT WT mice, 100 µg i.p. once a week for 5 weeks, start at first tumor 0.6 cm, vs IgG1 isotype) was “marked delay in tumor development” and the “Abundance of CD8+ T cells and γδ T cells in tumors” value (PyMT tumors [4]; flow cytometry after 5 weeks of treatment, vs IgG1 isotype) was “increased abundance of CD8+ T cells and γδ T cells in the tumors”. For the same molecule, the “Cytokine-producing γδ T cells in tumors” value (PyMT tumors [4]; intracellular cytokine staining, flow cytometry, after 5 weeks of treatment) was “IFN-γ rather than IL-17-producing γδ T cells were increased”.
